Laboratory results reported in publication PMC9939298.

Tests used:
purified protein [1] = substrate: O=c1ccn([C@@H]2O[C@H](COP(=O)(O)OP(=O)(O)O[C@H]3OC[C@@H](O)[C@H](O)[C@H]3O)[C@@H](O)[C@H]2O)c(=O)[nH]1; assay: purified protein; conditions: acceptor astragaloside III (5); details in supplement Table S2
purified protein [2] = substrate: O=c1ccn([C@@H]2O[C@H](CO[P@@](=O)(O)O[P@@](=O)(O)O[C@H]3O[C@H](CO)[C@@H](O)[C@H](O)[C@H]3O)[C@@H](O)[C@H]2O)c(=O)[nH]1; assay: purified protein; conditions: details in supplement Table S2

Row | Protein | Km (purified protein [1]) [µM] | Km (purified protein [2]; acceptor astragaloside III (5)) [µM] | Km (purified protein [2]; acceptor cycloastragenol-3-O-β-D-xyloside (2)) [µM]
1 | AmUGT13 (Astragalus mongholicus) (protein) MEREAENRPLKLYFLPFLAAGHMIPLCDIAMLFASRGQDVTVITTPSNAETLLKRKSNNHLHIHTVDIPSDSPQIENITSATNIDSAISVYTAAMLLRQPVEQFLRENPPDCIVADFMYQWVSEIANTLQIPRLAFNGFPLFAVCAMNSFSAHPELFSGSVSEPFNLPDLPHPITMHARSPEGIFRFYEALLKMEVESHGLIVNSFVEIESEYVEHYERTTGHKAWHLGPASLVHASNQQKSERGHISVVSENDCVSWLNSKQPNSVVYISFGSTCRFSDNQLYEIAAGVEASGHPFIWVVLEKLEEKGSKGWLPEGFEERMKEKGMIIRGWAPQVLILDHPAIGGFLTHCGWNSVVEGVSAGVPMMTWPVQADQFYNEKLITEVQGNGVEVGAVEWGVSGYGERKIVISREKIEKAVRRVMDGGDEAEEIRRRARQLAVKAKEAVREGGSSHRNLRELIRDLKLLRDSRSAN | 479.6 | 414.7 | –
2 | AmUGT7 (Astragalus mongholicus) (protein) MESQQSHEQLNVTFLPYPTPGHMIPMIDTARLFAKHGATVTIITTHANASTFQKHIDSDISLGYPIKTQLIQFPAAQVGLPDGVENVKDGSSLELLGKISQGIFLLQGQIELLFQHLQPDCIVTDMMYPWTVESAAKLGIPRLHYYSTSYFSNCASYFVRKYRPHDSLDSDDQKFTVPCLPISIEMTPLQLPEWIRTKNPSTGGFFEAMYESEKNSYGTLYNSFHELESDYEQLNKTTMGIKSWSVGPVSAWANKDDEKKANRGHMGESGKELEWLNWLNSKQNDSVLYVSFGSLTRLPNAQLLEIAHGLEISGHNFIWVIRKNDRDEDGDNFLQEFEQRMKESKKGYIIWNWAPQLLILDQPAVGGIVTHCGWNSILESINAGLPMIAWPMFAEQFYNERLLVDVLKIGVPVGVKENKYWFNIGEETLVRREEIMKAVVLLMGSSQESKEMRLKAKKLADASKRTIEEGGHSYNNLLQLIDELKSLKISRELDKSRLDN | – | – | 74.8
